In the assay the target is Pyruvate kinase M2 isoform (human (endogenous in A549)) (UniProt P14618). Put plainly: cross-linking; A549 cells washed with PBS pH 8.0 and treated with BS3 for 1 h at room temperature before lysis in loading buffer; dimers and tetramers by immunoblot; cells with eEF2K depletion, overexpression or A484954. On the technique in general: A western blot detects proteins with antibodies after separation by electrophoresis.

Broadly, the stoichiometry N is the number of molecules, sites or subunits per partner or assembly.

Pyruvate kinase M2 isoform, P14618 1-531 (enzyme; other documents disagree on this pair), sequence (P14618 whole entry, canonical isoform): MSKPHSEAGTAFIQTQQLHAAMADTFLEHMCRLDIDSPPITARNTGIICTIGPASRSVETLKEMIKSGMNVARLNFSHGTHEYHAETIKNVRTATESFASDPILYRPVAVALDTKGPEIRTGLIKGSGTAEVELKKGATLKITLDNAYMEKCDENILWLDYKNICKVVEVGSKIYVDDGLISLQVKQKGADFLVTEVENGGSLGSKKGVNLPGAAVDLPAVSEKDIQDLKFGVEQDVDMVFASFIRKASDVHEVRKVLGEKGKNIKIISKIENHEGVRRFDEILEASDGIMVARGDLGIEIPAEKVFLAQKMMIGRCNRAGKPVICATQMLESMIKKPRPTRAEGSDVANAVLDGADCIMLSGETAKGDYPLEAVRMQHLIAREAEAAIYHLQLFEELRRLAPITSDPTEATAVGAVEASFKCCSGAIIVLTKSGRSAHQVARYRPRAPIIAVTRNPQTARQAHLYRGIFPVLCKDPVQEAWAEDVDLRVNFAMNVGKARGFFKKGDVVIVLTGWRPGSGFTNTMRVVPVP

Regarding “Pyruvate kinase M2 isoform, P14618 1-531 (enzyme; other documents disagree on this pair)”, the stoichiometry N turned out to be 2.

The values are drawn from paper PMC7020344.
